Experimental data as given in article PMC8891188 (Clinical Pharmacokinetics, 2021).
Where two headings read alike, the source gives them in different places.

Experiments:
[1] = 10 U SC; Howey et al.; cited from earlier work
[2] = cited from earlier work
[3] = simulation of the previous study by Rüppel et al.; cited from earlier work
[4] = Serum insulin pharmacokinetics during euglycemic clamp; format: in vivo, human
[5] = test system: persons with type 1 diabetes mellitus; experiment: Euglycemic clamp pharmacodynamics; format: in vivo, human
[6] = across doses, TI inhaled, LIS SC
[7] = mean (SD) of n = 5 PK profiles selected for comparable AUClast, SD

RHI: regular human insulin, given intravenously or subcutaneously in cited studies
MRT [1]: 3.92 h | Time to maximum concentration (Cmax) of insulin ([2]; IV, after the start of administration): 5 min | Time to maximum concentration (Cmax) of insulin ([2]; SC, after administration): 121 min | ED50, Emax model of predicted GIR AUC vs D [3]: 48 U

[Lys(B28), Pro(B29)]-human insulin [LIS]
Insulin exposure estimated from the linear regression equations ([4]; 10-U dose of LIS SC, regression equations in the ESM): 8152 min µU/mL | Geometric mean dose-normalized insulin exposure (AUClast/D) across doses [4, 6]: 883 min·µU/mL/U | Estimated MRT at the same insulin exposure ([4]; insulin exposure of 8152 min µU/mL, regression equations): 1.97 h | AUClast of profiles at the high end of the common exposure range [4, 7]: 61,371 (9082) min∙µU/mL | AUClast of profiles at the low end of the common exposure range [4, 7]: 6538 (65) min∙µU/mL | Geometric mean dose-normalized effect, GIR AUC/D [5, 6]: 66.2 mg/kg/U | γ, model of GIRmax vs Cmax (common value) ([5]; common to TI and LIS, estimate (standard error), SEM): 1.37 (0.19) | Total effect (GIR AUC) at comparable low insulin exposure ([5]; n = 5 profiles per treatment, AUClast about 6537 min∙µU/mL): 899 mg/kg | Exponent of dose dependence of tGIRend (tGIRend ~ D^x) ([5]; power-law fit, log-transformed variables): ~0.282 | MRT [1]: 1.68 h
